Reference: publication PMC5824745

Columns and labels:
eIF4G = eIF4G (UniProt Q6NZJ6); experiment: m7GDP-agarose cap pull-down, immunoblot; conditions: reference: wild-type mouse forebrain; sites S209
rpL13a = rpL13a (UniProt P19253); experiment: m7GDP-agarose cap pull-down, immunoblot; conditions: reference: wild-type mouse forebrain; sites S209
Gapdh = Gapdh (UniProt P16858); experiment: m7GDP-agarose cap pull-down, immunoblot; conditions: reference: wild-type mouse forebrain; sites S209
[1] = target: eukaryotic Initiation Factor 4E (eIF4E), wild type (mouse (endogenous in forebrain)) (UniProt P63073); experiment: pull-down; cap-column pulldown: 500 ug forebrain lysate protein with 50 ul m7GDP agarose in buffer C (50 mM MOPS-KOH pH 7.4, 100 mM NaCl, 50 mM NaF, 0.5 mM EDTA, 0.5 mM EGTA, 0.1 mM GTP), 90 min at 4 C; eIF4E held by its ligand m7GDP; cap-bound fraction immunoblotted and quantified, normalised to input

Chain of Gapdh, P16858 1-333 (natural protein; other documents disagree on this pair) (P16858 whole entry): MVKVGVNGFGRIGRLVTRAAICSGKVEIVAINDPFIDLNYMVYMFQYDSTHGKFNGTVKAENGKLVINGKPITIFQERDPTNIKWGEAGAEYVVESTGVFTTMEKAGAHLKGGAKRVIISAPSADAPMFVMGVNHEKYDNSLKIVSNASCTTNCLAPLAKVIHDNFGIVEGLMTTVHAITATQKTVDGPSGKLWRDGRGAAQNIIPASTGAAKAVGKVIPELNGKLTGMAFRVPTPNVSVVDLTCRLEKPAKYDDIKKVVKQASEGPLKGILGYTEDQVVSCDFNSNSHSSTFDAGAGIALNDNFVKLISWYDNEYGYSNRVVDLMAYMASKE

Row | Substance | other: cap-bound band intensity normalized to input (eIF4G) | other: cap-bound band intensity normalized to input (rpL13a) | other: cap-bound band intensity normalized to input (Gapdh) | cap-bound protein (arbitrary units, normalised to input) (arbitrary units) [1]
1 | eIF4E (from UniProt P63073) 4Eki (S209A knock-in) forebrain | same; reference 1.002 ± 0.149 | weaker; reference 0.9975 ± 0.1723 | same; reference 0.998 ± 0.254 | 
2 | Gapdh, P16858 1-333 (natural protein; other documents disagree on this pair) |  |  |  | 0.998
